Assay results from US20250262210A1 (TRUSTEES OF COLUMBIA UNIVERSITY IN THE CITY OF NEW YORK, published 2025).

Assays:
Experiment in all cases: IP/MS, LZTR1 wild type-FLAG, U87
CRYBG1 = CRYBG1 (human, UniProt Q9Y4K1 1-2131, limits assumed)
Procedure, shortened: (§1)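 Read-out: spectral counts from LC-MS/MS (Orbitrap Fusion) after MaxQuant identification. Variable modifications were Met oxidation, protein N-terminal acetylation and N/Q deamidation.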

HECTD3 = target: T1, HECTD3 (human, UniProt Q5T447 2-861, limits assumed)
T1 sequence (looked up): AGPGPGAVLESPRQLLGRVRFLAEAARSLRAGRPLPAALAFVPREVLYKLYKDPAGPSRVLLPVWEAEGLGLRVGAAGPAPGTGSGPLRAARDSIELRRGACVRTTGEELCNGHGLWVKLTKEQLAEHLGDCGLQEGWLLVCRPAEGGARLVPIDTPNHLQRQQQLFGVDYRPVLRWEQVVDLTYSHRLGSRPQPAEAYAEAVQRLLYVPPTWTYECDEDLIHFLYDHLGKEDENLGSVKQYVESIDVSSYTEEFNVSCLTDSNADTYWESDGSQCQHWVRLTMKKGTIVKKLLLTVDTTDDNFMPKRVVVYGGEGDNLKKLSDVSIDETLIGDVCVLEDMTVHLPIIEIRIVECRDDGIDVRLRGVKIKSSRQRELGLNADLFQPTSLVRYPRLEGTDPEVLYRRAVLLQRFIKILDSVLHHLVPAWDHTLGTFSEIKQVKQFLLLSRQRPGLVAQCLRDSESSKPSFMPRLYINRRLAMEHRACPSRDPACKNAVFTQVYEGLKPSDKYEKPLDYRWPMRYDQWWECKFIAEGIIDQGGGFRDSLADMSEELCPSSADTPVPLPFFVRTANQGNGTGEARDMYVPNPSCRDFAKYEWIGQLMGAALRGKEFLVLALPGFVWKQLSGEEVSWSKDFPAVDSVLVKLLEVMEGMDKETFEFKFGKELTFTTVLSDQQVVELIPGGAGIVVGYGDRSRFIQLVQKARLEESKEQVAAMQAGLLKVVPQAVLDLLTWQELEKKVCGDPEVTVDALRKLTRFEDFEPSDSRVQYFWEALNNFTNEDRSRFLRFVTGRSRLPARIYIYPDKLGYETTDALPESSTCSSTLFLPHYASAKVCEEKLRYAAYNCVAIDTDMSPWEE
Procedure, shortened: as §1

RANBP6 = target: T2, RANBP6 (human, UniProt O60518 2-1105)
T2 sequence (looked up): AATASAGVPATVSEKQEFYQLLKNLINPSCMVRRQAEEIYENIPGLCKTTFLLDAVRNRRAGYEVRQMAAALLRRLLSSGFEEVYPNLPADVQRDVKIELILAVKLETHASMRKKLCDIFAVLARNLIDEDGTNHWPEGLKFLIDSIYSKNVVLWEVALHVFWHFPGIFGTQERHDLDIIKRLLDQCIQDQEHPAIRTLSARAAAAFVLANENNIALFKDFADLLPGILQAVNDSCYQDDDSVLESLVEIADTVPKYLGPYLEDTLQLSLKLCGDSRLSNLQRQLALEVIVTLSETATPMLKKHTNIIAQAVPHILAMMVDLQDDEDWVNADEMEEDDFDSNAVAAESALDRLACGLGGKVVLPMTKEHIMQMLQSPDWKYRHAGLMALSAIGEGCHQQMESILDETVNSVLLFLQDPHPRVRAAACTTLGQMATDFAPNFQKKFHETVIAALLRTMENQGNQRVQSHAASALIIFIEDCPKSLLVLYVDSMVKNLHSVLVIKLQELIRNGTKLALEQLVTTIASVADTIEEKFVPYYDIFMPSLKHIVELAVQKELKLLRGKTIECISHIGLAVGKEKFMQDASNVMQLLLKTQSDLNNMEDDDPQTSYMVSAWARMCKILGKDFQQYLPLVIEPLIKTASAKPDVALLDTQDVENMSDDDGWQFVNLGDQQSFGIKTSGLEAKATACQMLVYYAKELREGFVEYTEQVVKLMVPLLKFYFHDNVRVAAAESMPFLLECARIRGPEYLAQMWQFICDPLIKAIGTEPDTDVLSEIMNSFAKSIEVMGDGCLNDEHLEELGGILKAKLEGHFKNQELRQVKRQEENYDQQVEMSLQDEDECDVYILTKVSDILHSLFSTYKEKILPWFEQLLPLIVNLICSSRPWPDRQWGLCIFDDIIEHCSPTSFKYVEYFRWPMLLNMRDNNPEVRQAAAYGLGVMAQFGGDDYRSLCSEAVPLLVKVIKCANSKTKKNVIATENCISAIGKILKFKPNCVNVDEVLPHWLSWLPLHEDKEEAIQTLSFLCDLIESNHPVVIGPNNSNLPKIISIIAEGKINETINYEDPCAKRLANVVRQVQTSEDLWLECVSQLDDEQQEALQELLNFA
Procedure, shortened: as §1

ASXL1 = ASXL1 (human, UniProt Q8IXJ9 1-1541, limits assumed)
ASXL1, sequence (Q8IXJ9 whole entry): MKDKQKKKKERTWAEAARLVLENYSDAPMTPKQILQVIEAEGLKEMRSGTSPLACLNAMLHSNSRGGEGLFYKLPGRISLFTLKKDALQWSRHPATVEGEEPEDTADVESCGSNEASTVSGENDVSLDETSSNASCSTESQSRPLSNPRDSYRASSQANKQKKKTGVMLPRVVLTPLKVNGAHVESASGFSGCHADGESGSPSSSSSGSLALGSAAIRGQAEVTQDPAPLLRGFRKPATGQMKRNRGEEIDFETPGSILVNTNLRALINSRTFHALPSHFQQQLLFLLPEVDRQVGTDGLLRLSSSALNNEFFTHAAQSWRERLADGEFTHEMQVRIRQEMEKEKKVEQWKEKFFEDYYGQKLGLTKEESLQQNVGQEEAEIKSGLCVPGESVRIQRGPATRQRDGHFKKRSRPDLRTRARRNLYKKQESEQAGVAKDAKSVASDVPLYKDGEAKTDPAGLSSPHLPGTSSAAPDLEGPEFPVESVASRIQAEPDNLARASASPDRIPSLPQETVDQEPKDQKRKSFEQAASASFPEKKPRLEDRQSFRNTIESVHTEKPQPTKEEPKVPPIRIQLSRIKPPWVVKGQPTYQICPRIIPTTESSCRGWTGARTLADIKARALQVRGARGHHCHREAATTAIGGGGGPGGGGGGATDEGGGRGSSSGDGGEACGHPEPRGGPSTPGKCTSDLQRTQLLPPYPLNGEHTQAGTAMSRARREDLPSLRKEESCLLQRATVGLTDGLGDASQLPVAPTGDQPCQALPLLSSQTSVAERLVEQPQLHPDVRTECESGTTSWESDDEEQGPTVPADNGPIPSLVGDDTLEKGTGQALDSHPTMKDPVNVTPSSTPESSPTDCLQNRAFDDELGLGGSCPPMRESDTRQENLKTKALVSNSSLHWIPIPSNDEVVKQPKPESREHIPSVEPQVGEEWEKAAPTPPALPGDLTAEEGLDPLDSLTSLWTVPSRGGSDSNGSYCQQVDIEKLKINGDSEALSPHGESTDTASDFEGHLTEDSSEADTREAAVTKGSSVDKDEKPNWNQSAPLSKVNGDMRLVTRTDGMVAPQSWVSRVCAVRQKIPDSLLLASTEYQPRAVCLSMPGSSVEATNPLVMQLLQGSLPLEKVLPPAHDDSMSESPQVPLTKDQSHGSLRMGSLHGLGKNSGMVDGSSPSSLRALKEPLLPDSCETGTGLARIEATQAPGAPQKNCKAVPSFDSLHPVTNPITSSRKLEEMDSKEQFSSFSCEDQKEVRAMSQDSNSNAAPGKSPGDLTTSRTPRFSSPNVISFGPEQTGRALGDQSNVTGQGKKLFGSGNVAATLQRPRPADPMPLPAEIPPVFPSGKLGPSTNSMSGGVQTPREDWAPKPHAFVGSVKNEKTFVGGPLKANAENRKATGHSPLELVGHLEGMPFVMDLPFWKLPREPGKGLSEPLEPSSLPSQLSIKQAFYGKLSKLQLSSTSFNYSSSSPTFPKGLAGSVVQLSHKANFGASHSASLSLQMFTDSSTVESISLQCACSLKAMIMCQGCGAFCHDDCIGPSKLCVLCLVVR
Procedure, shortened: as §1

TRRAP = TRRAP (human, UniProt Q9Y4A5 2-3859, limits assumed)
Procedure, shortened: as §1

HELZ = HELZ (human, UniProt P42694 1-1942, limits assumed)
Procedure, shortened: as §1

Measured: binding result

CRYBG1, sequence (Q9Y4K1 whole entry, the tested form may be a part): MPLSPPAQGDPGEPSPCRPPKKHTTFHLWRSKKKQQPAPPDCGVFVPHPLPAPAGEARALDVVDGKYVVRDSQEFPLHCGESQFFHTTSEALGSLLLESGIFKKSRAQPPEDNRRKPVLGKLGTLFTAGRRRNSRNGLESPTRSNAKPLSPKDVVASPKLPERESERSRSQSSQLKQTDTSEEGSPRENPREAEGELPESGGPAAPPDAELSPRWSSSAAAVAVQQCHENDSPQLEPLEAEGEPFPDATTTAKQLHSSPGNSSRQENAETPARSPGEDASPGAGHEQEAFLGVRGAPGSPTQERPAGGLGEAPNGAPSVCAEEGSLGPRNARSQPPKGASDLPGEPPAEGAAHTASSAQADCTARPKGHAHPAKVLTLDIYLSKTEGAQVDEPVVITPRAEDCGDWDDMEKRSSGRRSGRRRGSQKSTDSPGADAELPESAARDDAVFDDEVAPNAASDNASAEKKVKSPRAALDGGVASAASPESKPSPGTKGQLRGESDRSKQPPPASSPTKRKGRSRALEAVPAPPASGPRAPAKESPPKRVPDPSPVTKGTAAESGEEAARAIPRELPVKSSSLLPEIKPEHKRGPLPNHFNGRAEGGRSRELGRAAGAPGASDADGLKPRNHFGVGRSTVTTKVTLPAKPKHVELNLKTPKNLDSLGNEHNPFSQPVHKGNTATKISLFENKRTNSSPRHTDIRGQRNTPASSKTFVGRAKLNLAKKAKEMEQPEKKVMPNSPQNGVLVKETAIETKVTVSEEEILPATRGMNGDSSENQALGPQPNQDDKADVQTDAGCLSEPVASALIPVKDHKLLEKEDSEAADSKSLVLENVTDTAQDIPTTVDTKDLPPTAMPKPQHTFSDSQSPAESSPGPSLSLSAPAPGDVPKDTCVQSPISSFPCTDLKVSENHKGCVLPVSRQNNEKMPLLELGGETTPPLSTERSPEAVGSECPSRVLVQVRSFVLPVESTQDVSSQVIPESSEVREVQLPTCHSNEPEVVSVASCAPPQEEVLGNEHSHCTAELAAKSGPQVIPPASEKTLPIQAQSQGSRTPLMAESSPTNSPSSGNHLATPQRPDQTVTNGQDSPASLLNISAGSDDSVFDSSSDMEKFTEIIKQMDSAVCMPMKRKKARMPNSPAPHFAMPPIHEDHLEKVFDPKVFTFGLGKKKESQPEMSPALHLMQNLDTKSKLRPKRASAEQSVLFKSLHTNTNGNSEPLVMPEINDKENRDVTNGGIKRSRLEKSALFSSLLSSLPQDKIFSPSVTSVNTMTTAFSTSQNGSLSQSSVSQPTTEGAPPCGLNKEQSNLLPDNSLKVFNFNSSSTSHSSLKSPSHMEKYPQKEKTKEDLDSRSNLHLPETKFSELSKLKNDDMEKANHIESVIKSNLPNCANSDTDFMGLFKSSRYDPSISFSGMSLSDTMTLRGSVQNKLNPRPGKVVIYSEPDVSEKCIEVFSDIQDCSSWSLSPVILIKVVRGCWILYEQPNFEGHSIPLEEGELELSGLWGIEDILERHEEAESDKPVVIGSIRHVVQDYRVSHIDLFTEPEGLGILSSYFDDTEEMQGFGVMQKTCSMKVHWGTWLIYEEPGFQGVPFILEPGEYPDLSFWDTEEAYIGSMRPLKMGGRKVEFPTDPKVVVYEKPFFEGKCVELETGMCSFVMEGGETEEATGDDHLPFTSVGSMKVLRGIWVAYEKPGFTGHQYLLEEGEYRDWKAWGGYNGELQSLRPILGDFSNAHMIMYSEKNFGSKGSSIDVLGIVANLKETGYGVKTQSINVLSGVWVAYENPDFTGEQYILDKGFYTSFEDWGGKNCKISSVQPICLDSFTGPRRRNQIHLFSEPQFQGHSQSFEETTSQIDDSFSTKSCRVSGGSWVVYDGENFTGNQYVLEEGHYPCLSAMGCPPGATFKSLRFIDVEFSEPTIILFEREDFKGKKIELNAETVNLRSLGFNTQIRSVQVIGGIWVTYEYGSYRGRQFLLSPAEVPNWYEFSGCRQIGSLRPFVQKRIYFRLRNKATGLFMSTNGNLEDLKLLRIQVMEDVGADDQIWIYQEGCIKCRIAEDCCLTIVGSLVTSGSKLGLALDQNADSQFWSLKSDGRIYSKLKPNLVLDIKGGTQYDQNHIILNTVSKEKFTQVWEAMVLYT

B1: LZTR1-FLAG (other, human, UniProt Q8N653 1-840, looked up)
chain: MAGPGSTGGQIGAAALAGGARSKVAPSVDFDHSCSDSVEYLTLNFGPFETVHRWRRLPPCDEFVGARRSKHTVVAYKDAIYVFGGDNGKTMLNDLLRFDVKDCSWCRAFTTGTPPAPRYHHSAVVYGSSMFVFGGYTGDIYSNSNLKNKNDLFEYKFATGQWTEWKIEGRLPVARSAHGATVYSDKLWIFAGYDGNARLNDMWTIGLQDRELTCWEEVAQSGEIPPSCCNFPVAVCRDKMFVFSGQSGAKITNNLFQFEFKDKTWTRIPTEHLLRGSPPPPQRRYGHTMVAFDRHLYVFGGAADNTLPNELHCYDVDFQTWEVVQPSSDSEVGGAEVPERACASEEVPTLTYEERVGFKKSRDVFGLDFGTTSAKQPTQPASELPSGRLFHAAAVISDAMYIFGGTVDNNIRSGEMYRFQFSCYPKCTLHEDYGRLWESRQFCDVEFVLGEKEECVQGHVAIVTARSRWLRRKITQARERLAQKLEQEAAPVPREAPGVAAGGARPPLLHVAIREAEARPFEVLMQFLYTDKIKYPRKGHVEDVLLIMDVYKLALSFQLCRLEQLCRQYIEASVDLQNVLVVCESAARLQLSQLKEHCLNFVVKESHFNQVIMMKEFERLSSPLIVEIVRRKQQPPPRTPLDQPVDIGTSLIQDMKAYLEGAGAEFCDITLLLDGHPRPAHKAILAARSSYFEAMFRSFMPEDGQVNISIGEMVPSRQAFESMLRYIYYGEVNMPPEDSLYLFAAPYYYGFYNNRLQAYCKQNLEMNVTVQNVLQILEAADKTQALDMKRHCLHIIVHQFTKVSKLPTLRSLSQQLLLDIIDSLASHISDKQCAELGADI
notes: Expressed in HEK 293T, HeLa or U87 cells; used as cell lysate; also called LZTR1 wild type-FLAG; LZTR1 WT; not shown: FLAG tag at the C-terminus
binds: CRYBG1 | HECTD3 | RANBP6 | ASXL1 | TRRAP | HELZ
